Experimental data from PMC3230568 (2011).

Biological target: p53 DBD 94-288 (Homo sapiens, UniProt P04637)
Test: atomic force spectroscopy

p53 DBD 94-288, sequence (P04637 94-288): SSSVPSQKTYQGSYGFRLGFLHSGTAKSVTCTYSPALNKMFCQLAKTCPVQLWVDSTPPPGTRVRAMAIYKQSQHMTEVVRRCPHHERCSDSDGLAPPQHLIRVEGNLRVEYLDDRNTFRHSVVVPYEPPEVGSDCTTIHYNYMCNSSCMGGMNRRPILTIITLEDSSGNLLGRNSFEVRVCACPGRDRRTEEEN

B1: p28 (azurin fragment, Cys-p28) 50-77 (peptide)
chain: TVNLSHPGNLPKNVMGHNWVLSTAADMQ
B1 was tested, and the Kd was 630 nM.
